# Data from the FLAb antibody collection (doi:10.7554/elife.23156).
# B1: scFv; the commonest letter at each place (parent)
# chain 1: EVKLDETGGGLVQPGRPMKLSCVASGFTFSDYWMNWVRQSPEKGLEWVAQIRNKPYNYETYYSDSVKGRFTISRDDSKSSVYLQMNNLRVEDMGIYYCTGSYYGMDYWGQGTSVTVS
# chain 2: DVVMTQTPLSLPVSLGDQASISCRSSQSLVHSNGNTYLRWYLQKPGQSPKVLIYKVSNRFSGVPDRFSGSGSGTDFTLKISRVEAEDLGVYFCSQSTHVPWTFGGGTKLEIK
# How the values were obtained:
# fluorescein = variants of: B1; test: Kd (Tite-Seq); settings: with fluorescein; format: scFv 4-4-20, heavy + light
# [1] = variants of: B1; test: yeast surface expression (ratio to wild type); higher = more expressed; settings: format: scFv 4-4-20, heavy + light
Variant,Kd (fluorescein),yeast surface expression [1]
chain 1 EVKLDETGGGLVQPGRPMKLSCVASGFHFSDYWMNWVRQSPEKGLEWVAQIRNKPYNYETYYSDSVKGRFTISRDDSKSSVYLQMNNLRVEDMGIYYCTGSYYGMDYWGQGTSVTVS chain 2 DVVMTQTPLSLPVSLGDQASISCRSSQSLVHSNGNTYLRWYLQKPGQSPKVLIYKVSNRFSGVPDRFSGSGSGTDFTLKISRVEAEDLGVYFCSQSTHVPWTFGGGTKLEIK [chain 1 T28H],1.58 nM,0.965
chain 1 EVKLDETGGGLVQPGRPMKLSCVASGFHFSDIWMNWVRQSPEKGLEWVAQIRNKPYNYETYYSDSVKGRFTISRDDSKSSVYLQMNNLRVEDMGIYYCTGSYYGMDYWGQGTSVTVS chain 2 DVVMTQTPLSLPVSLGDQASISCRSSQSLVHSNGNTYLRWYLQKPGQSPKVLIYKVSNRFSGVPDRFSGSGSGTDFTLKISRVEAEDLGVYFCSQSTHVPWTFGGGTKLEIK [chain 1 T28H Y32I],≥ 10000 nM,0.92
chain 1 EVKLDETGGGLVQPGRPMKLSCVASGFHFSDYWHNWRRQSPEKGLEWVAQIRNKPYNYETYYSDSVKGRFTISRDDSKSSVYLQMNNLRVEDMGIYYCTGSYYGMDYWGQGTSVTVS chain 2 DVVMTQTPLSLPVSLGDQASISCRSSQSLVHSNGNTYLRWYLQKPGQSPKVLIYKVSNRFSGVPDRFSGSGSGTDFTLKISRVEAEDLGVYFCSQSTHVPWTFGGGTKLEIK [chain 1 T28H M34H V37R],≥ 10000 nM,2.76
chain 1 EVKLDETGGGLVQPGRPMKLSCVASGFHFSKYWMNWVRQSPEKGLEWVAQIRNKPYNYETYYSDSVKGRFTISRDDSKSSVYLQMNNLRVEDMGIYYCTGSYYGMDYWGQGTSVTVS chain 2 DVVMTQTPLSLPVSLGDQASISCRSSQSLVHSNGNTYLRWYLQKPGQSPKVLIYKVSNRFSGVPDRFSGSGSGTDFTLKISRVEAEDLGVYFCSQSTHVPWTFGGGTKLEIK [chain 1 T28H D31K],6.06 nM,0.589
chain 1 EVKLDETGGGLVQPGRPMKLSCVASGFHFSDYWMNLVRQSPEKGLEWVAQIRNKPYNYETYYSDSVKGRFTISRDDSKSSVYLQMNNLRVEDMGIYYCTGSYYGMDYWGQGTSVTVS chain 2 DVVMTQTPLSLPVSLGDQASISCRSSQSLVHSNGNTYLRWYLQKPGQSPKVLIYKVSNRFSGVPDRFSGSGSGTDFTLKISRVEAEDLGVYFCSQSTHVPWTFGGGTKLEIK [chain 1 T28H W36L],≥ 10000 nM,0.454
chain 1 EVKLDETGGGLVQPGRPMKLSCVASGFHFSDYWMNGVRQSPEKGLEWVAQIRNKPYNYETYYSDSVKGRFTISRDDSKSSVYLQMNNLRVEDMGIYYCTGSYYGMDYWGQGTSVTVS chain 2 DVVMTQTPLSLPVSLGDQASISCRSSQSLVHSNGNTYLRWYLQKPGQSPKVLIYKVSNRFSGVPDRFSGSGSGTDFTLKISRVEAEDLGVYFCSQSTHVPWTFGGGTKLEIK [chain 1 T28H W36G],≥ 10000 nM,2.76

# Further variants by falling Kd (fluorescein), results first:
Kd (fluorescein),Variant,yeast surface expression [1]
3430 nM,chain 1 EVKLDETGGGLVQPGRPMKLSCVASGFHFSDYWMNWLRQSPEKGLEWVAQIRNKPYNYETYYSDSVKGRFTISRDDSKSSVYLQMNNLRVEDMGIYYCTGSYYGMDYWGQGTSVTVS chain 2 DVVMTQTPLSLPVSLGDQASISCRSSQSLVHSNGNTYLRWYLQKPGQSPKVLIYKVSNRFSGVPDRFSGSGSGTDFTLKISRVEAEDLGVYFCSQSTHVPWTFGGGTKLEIK [chain 1 T28H V37L],0.691
69.2 nM,chain 1 EVKLDETGGGLVQPGRPMKLSCVASGFHFNDMWMNWVRQSPEKGLEWVAQIRNKPYNYETYYSDSVKGRFTISRDDSKSSVYLQMNNLRVEDMGIYYCTGSYYGMDYWGQGTSVTVS chain 2 DVVMTQTPLSLPVSLGDQASISCRSSQSLVHSNGNTYLRWYLQKPGQSPKVLIYKVSNRFSGVPDRFSGSGSGTDFTLKISRVEAEDLGVYFCSQSTHVPWTFGGGTKLEIK [chain 1 T28H S30N Y32M],1.01
3.09 nM,chain 1 EVKLDETGGGLVQPGRPMKLSCVASGFIFSAYWMNWVRQSPEKGLEWVAQIRNKPYNYETYYSDSVKGRFTISRDDSKSSVYLQMNNLRVEDMGIYYCTGSYYGMDYWGQGTSVTVS chain 2 DVVMTQTPLSLPVSLGDQASISCRSSQSLVHSNGNTYLRWYLQKPGQSPKVLIYKVSNRFSGVPDRFSGSGSGTDFTLKISRVEAEDLGVYFCSQSTHVPWTFGGGTKLEIK [chain 1 T28I D31A],0.566
1.84 nM,chain 1 EVKLDETGGGLVQPGRPMKLSCVASGFHFDDYWMNWVRQSPEKGLEWVAQIRNKPYNYETYYSDSVKGRFTISRDDSKSSVYLQMNNLRVEDMGIYYCTGSYYGMDYWGQGTSVTVS chain 2 DVVMTQTPLSLPVSLGDQASISCRSSQSLVHSNGNTYLRWYLQKPGQSPKVLIYKVSNRFSGVPDRFSGSGSGTDFTLKISRVEAEDLGVYFCSQSTHVPWTFGGGTKLEIK [chain 1 T28H S30D],0.948
1.22 nM,chain 1 EVKLDETGGGLVQPGRPMKLSCVASGFHFGDYWMNWVRQSPEKGLEWVAQIRNKPYNYETYYSDSVKGRFTISRDDSKSSVYLQMNNLRVEDMGIYYCTGSYYGMDYWGQGTSVTVS chain 2 DVVMTQTPLSLPVSLGDQASISCRSSQSLVHSNGNTYLRWYLQKPGQSPKVLIYKVSNRFSGVPDRFSGSGSGTDFTLKISRVEAEDLGVYFCSQSTHVPWTFGGGTKLEIK [chain 1 T28H S30G],1.04
0.504 nM,chain 1 EVKLDETGGGLVQPGRPMKLSCVASGFIFSDYWMNWVRQSPEKGLEWVAQIRNKPYNYETYYSDSVKGRFTISRDDSKSSVYLQMNNLRVEDMGIYYCTGSYYGMDYWGQGTSVTVS chain 2 DVVMTQTPLSLPVSLGDQASISCRSSQSLVHSNGNTYLRWYLQKPGQSPKVLIYKVSNRFSGVPDRFSGSGSGTDFTLKISRVEAEDLGVYFCSQSTHVPWTFGGGTKLEIK [chain 1 T28I],1.07
